Results on 20 sequences are retold here after the supplement of paper PMC9170038.

Data set [1] has as its system MS2 coat protein. The data set is described as follows: apparent KD of MS2 coat protein, switch ON state; designed switch direction (-1 OFF switch, 1 ON switch): -1; higher = weaker reporter binding. The following applies: FMN input: 0 or 200 uM; Eterna round: R93 (includes R88 designs). An outline of the steps:
(§1)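 On-chip transcription from Illumina sequencing clusters produced the designed RNA switches. These were titrated with SNAP-549-labelled MS2 coat protein (twofold steps, 0.7 or 1.5 nM to 3 µM) in 100 mM Tris-HCl pH 7.5, 80 mM KCl, 4 mM MgCl2, with or without constant ligand. The apparent KD given is the per-design median of normalised cluster binding-curve fits.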

For data set [2], the system named is MS2 coat protein. Kind of data set: apparent KD of MS2 coat protein, switch OFF state (with FMN for OFF switches, without FMN for ON switches); designed switch direction (-1 OFF switch, 1 ON switch): -1; higher = weaker reporter binding. The note with it: FMN input: 0 or 200 uM; Eterna round: R93 (includes R88 designs). An outline of the steps:
as §1

“AAAGGACGAGGAUAUACAUGAGGAUCACCCAUGUAAAAAACAUAGUAAAAGGGCUUGUGUAGAAGGCGUCCAAA [Meechl Ex3 2 R2 v10]”: the “apparent KD of MS2 coat protein” value in the data set on MS2 coat protein [1] worked out at 173 nM; in the data set with MS2 coat protein [2], 35.6 nM.

With “AAAGGACGAGGAUAUACAUGAGGAUCACCCAUGUAAAAAGCAUAAUAAAAUAACUUAUGUAGAAGGCGUCCAAA [Mat - Exclusion 3 - Eli mod - D91]”, the “apparent KD of MS2 coat protein” value with MS2 coat protein [1] was 22 nM; in the data set on MS2 coat protein [2] it was 102 nM.

“AAAGGACUAGGAUAUACAUGAGGAUCACCCAUGUAAAAAACAUAAUAAAAGAACUUAUGUAGAAGGAGUCCAAA [69%, Moding Meechl, 9]”: the “apparent KD of MS2 coat protein” value in the data set with MS2 coat protein [1] is 31.7 nM; in the data set with MS2 coat protein [2] it was 93.7 nM.

For “AAAGGGCGAGGAUAUACAUGAGGAUCACCCAUGUAAAAAACAUAAUAAAAGAACUUAUGUAGAAGGCGUCCAAA [Meechl Ex3 2 R2 v2]”, the “apparent KD of MS2 coat protein” value in the data set with MS2 coat protein [1] was 52.8 nM; with MS2 coat protein [2] it was 321 nM.

As to “AAAGUGUGAGGAUAUGUCAAAGGACACGAAAGUGACAAAGGACAGAAGGUACAUGAGGAUCACCCAUGUAAAAA [milkweed 18]”, the results for the “apparent KD of MS2 coat protein” value in the data set on MS2 coat protein [1] and in the data set with MS2 coat protein [2] were 27.3 nM and 20.6 nM, respectively.

Regarding “AAAUACUAAGGAUAUACAUGAGGAUCACCCAUGUACAAACCCGUGGAACGGAUCGUUAGUAGAAGGUGGACAAA [Zaanrion]”, the “apparent KD of MS2 coat protein” value was found to be 15.6 nM in the data set on MS2 coat protein [1] and 15.4 nM in the data set on MS2 coat protein [2].

For “AAAUCAGUAGGAUAUACGAUUUUAUGCUAGAUAGAGGAACCACAUGAGGAUCACCCAUGUAGAAGGACUAGAUA [EX2 Malc#24]”, the “apparent KD of MS2 coat protein” value in the data set with MS2 coat protein [1] is 14.5 nM; in the data set on MS2 coat protein [2] it was 16.4 nM.

Take “AAAUGAUGAGGAUAUACAUGAGGAUCACCCAUGUGUAAAAAUAAAUACACAAAAGAAAGUAGAAGGCAUCAAAG [Mat - Exclusion 3 - Mayanna mod - D119]”: the “apparent KD of MS2 coat protein” value in the data set on MS2 coat protein [1] was 27.8 nM; in the data set with MS2 coat protein [2], 88.6 nM.

In the case of “AAAUGCUGAGGAUAUACAUGAGGAUCACCCAUGUAAAAUAAAUAAAGGGUGUAAACGUGUAGAAGGCAGCAUAA [Exclusion 3.14e (FMN+ favored )]”, the “apparent KD of MS2 coat protein” value in the data set on MS2 coat protein [1] was determined as 39.4 nM; with MS2 coat protein [2] it was 32.6 nM.

For the sequence “AACAAACAUGAGGAUCACCCAUGUCAGGAUAUCCGAAAUAAAGAAACAAUAAUAAUAAGGAGAAGGGACUAAAU [Ex1 sub 2]”, the “apparent KD of MS2 coat protein” value with MS2 coat protein [1] is 35.5 nM; in the data set with MS2 coat protein [2], 34.1 nM.

As for “AACAAACAUGAGGAUCACCCAUGUCAGGAUAUGCAUAAAUAAAUAAAUAAAUAAAUAAGCAGAAGGGACACAAC [Amethyst 90]”, the “apparent KD of MS2 coat protein” value with MS2 coat protein [1] came out at 45.1 nM; in the data set with MS2 coat protein [2], 53.3 nM.

With “AACAAACAUGAGGAUCACCCAUGUGAGGAUAUCGGAUGUACAGCGCAAUUAGAAUUAACGAGAAGGCACACUUA [Ex1_Neo]”, the results for the “apparent KD of MS2 coat protein” value in the data set with MS2 coat protein [1] and in the data set on MS2 coat protein [2] were 22.7 nM and 22.6 nM, respectively.

As for “AACAAGGCAGGAUAUACAUGAGGAUCACCCAUGUGAGAAUUAAGUGGCGUAACACAAAGUAGAAGGGCCAUGGA [Ruby 5]”, the “apparent KD of MS2 coat protein” value stood at 39.5 nM in the data set with MS2 coat protein [1] and 49.9 nM in the data set with MS2 coat protein [2].

Take “AACAAGUCAGGAUAUCCGAAAAGUAAAUAAGUAAAACAAAAGGAGAAGGGACAUGAGGAUCACCCAUGUAAAUA [JR_Exc004_Sub015]”: the “apparent KD of MS2 coat protein” value in the data set on MS2 coat protein [1] came out at 48.1 nM; with MS2 coat protein [2], 27.2 nM.

For “AACAAGUGAGGAUAUCGGAAAUGUAAAUAAGUUUCACAAAACGAGAAGGCACAUGAGGAUCACCCAUGUAAAUA [JR_Exc004_Sub013]”, the entries for the “apparent KD of MS2 coat protein” value in the data set with MS2 coat protein [1] and in the data set with MS2 coat protein [2] were 32.1 nM and 25.6 nM, respectively.

Take “AACAGAACAGGAUAUACAUGAGGAUCACCCAUGUCACAACAAAGCAGCGCAACACAAAGUAGAAGGGUUAUGGA [Ruby 14]”: the results for the “apparent KD of MS2 coat protein” value in the data set on MS2 coat protein [1] and with MS2 coat protein [2] were 31.8 nM and 40.9 nM, respectively.

Regarding “AACAGGACAGGAUAUACAUGAGGAUCACCCAUGUGAGAAUUAAGUGGCGUACCACAAAGUAGAAGGGUCCUGGA [Mat - Exclusion 3 - JL mod - D40]”, the results for the “apparent KD of MS2 coat protein” value with MS2 coat protein [1] and with MS2 coat protein [2] were 44.5 nM and 216 nM, respectively.

“AACAGGUCAGGAUAUGUGGAAAAAAUAAAAAAAAUAAAAACACAGAAGGGACAUGAGGAUCACCCAUGUAUAUA [May 21]”: the “apparent KD of MS2 coat protein” value with MS2 coat protein [1] turned out to be 89.4 nM; in the data set with MS2 coat protein [2], 53.4 nM.

Regarding “AACAGUACAGGAUAUACAUGAGGAUCACCCAUGUAAAAAUAAAAGGGCGUACCACAAAGUAGAAGGGUACUGGA [Moding Maslow revisited (73) 12]”, the “apparent KD of MS2 coat protein” value in the data set with MS2 coat protein [1] is 44.7 nM; in the data set with MS2 coat protein [2], 34 nM.

In the case of “AACAGUACAGGAUAUACAUGAGGAUCACCCAUGUAAAAUAAAUAAAAAUAAAAGGGAAGUAGAAGGGUACUGGA [Moding Maslow revisited (73) 17]”, the results for the “apparent KD of MS2 coat protein” value in the data set with MS2 coat protein [1] and in the data set on MS2 coat protein [2] were 31.6 nM and 46.5 nM, respectively.
